T1: mIgM (Mus musculus, UniProt P01872)
T1 sequence (P01872 1-454): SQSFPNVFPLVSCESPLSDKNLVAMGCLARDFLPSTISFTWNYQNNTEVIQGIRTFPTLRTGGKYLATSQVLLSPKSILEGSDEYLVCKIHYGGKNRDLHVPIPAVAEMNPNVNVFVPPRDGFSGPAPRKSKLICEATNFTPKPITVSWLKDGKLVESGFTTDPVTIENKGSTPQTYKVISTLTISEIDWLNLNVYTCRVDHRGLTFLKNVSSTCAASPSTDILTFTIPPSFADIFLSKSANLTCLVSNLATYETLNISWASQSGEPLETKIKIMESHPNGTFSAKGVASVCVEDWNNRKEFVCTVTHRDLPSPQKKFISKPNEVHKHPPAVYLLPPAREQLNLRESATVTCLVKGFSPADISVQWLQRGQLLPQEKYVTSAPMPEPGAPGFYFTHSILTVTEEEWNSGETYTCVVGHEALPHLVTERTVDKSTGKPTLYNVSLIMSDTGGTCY


Legend:
mIgM = molecular target: T1, mIgM; assay: IgM binding ELISA (mouse IgM); conditions: for IgM Binding EC50: mIgM-coated ELISA, half-log dilution 10 μg/ml-0.01 μg/ml
Protocol: Reactivity of the DVD-Ig proteins with mIgM was determined by enzyme-linked immunosorbent assay (ELISA). Briefly, each well of an Ultra Cruz 96 well microtiter plate (Santa Cruz Biotechnology, Dallas, Tex.) was coated with mIgM at a concentration of 1 μg/ml in 100 μl of PBS. The plate was covered in plastic wrap and incubated overnight at 4° C. Each well of the plate was then washed 3× with 300 μl of PBST. After the final wash, 200 μl of blocking buffer (1% BSA in PBS) was added to each well and the plate incubated at RT for 2 hours. The plate was then washed as above. Rows B-H of the microtiter plate were filled with 100 μl of dilution buffer (1% BSA in PBST). The DVD-Ig proteins were then diluted to […] in dilution buffer and 147 μl of a DVD-Ig protein was added in duplicate to row A of a 96 well plate. For a ½ log dilution, 47 μl was transferred from row A to row B. The pipette tips were replaced with clean tips and 47 μl from row B was transferred to row C. The serial transfers were repeated as above until row G. To assess the binding of the secondary detection reagent to the coated IgM, the final transfer 47 μl was only transferred from G1-G10 to H1-H10 and wells H11 and H12 were left containing 100 μl of dilution buffer. To maintain a 100 μl assay volume, 47 μl was removed from wells H1-H10 and G11-G12 and discarded. After the serial dilution was completed, the plate was incubated for 1-2 hours at RT. The plate was washed as above and then 100 μl of horseradish peroxidase conjugated goat α-hIgG Fc specific, diluted 1:3,000 in dilution buffer, was added to each well. The plate was incubated for 1 hour at RT and then washed 4× as above. The plate was developed by adding 100 μl of 3′,3′,5′,5′-Tetramethylbenzidine (TMB) substrate solution to each well and incubating the plate in the dark for 10-15 minutes. The enzymatic reaction was stopped by adding 100 μl of 1M H2SO4 to each well. The plate was read at 450 nm on an EnVision 2102 multilabel reader (Perkin Elmer, Waltham, Mass.).
DVD-Ig proteins DVD3751-DVD3760 were characterized by IgM binding assay at half-log dilution starting at 10 μg/ml-0.01 μg/ml according to the method of Example 2.5.
IgM binding ELISA: Titrations of the DVD-Ig™ proteins (10 μg/ml to 0.01 μg/ml) were added to ELISA plates coated with murine IgM. Bound antibody was detected with biotinylated anti-human IgG and streptavidin-HRP. EC50 were calculated from the titration curve using Prism6.

AM14 WT B cells = assay: [3H]thymidine incorporation, BCR/TLR9 stimulation of AM14 WT B cells; format: cell-based, mouse; parameters: key to 3H incorporation AM14 WT, relative result: (X)-(XXX) indicates relative results; (XX): (X)-(XXX) indicates relative results; (X)-(XXX) indicates relative results; level of 3H incorporation / 3H incorporation AM14 WT: dose or concentration left out as unconfirmed; conditions: for 3H incorporation AM14 WT: 24 hours, then 6 hours pulse
Source text: (§1) The AM14 B cell receptor (BCR) transgenic mouse has been described previously (Sweet et al. (2010) Autoimmun 43(8): 607-18). Briefly, AM14 is a BCR comprising the AM14 heavy chain and the Vk8 light chain that recognizes murine IgG2a (mIgG2a) of the “a” allotype. Between 95-98% of B cells in a mouse positive for the AM14 heavy chain and Vk8 light chain express the AM14 BCR. To generate AM14 B cells that are deficient in TLR9, TLR7 or FcγRIIB, the AM14 and Vk8 genes were bred to the appropriate knock out mice.
(§2) Primary murine B cells were purified by positive selection using BD Imag™ CD45R/B220 magnetic particles (BD Biosciences, San Jose, Calif.). Briefly, B cells were cultured in RPMI containing, pencillin-streptomycin, β-mercaptoethanol, and 5% heat-inactivated fetal calf serum (FCS) in 96 well flat bottom plates at a density of 4×10^5 cells/well. For stimulation through the BCR and TLR9, B cells were treated with a titration of 0.3 μg/ml-0.03 μg/ml of PA4 or 5 μg/ml to 0.15 μg/ml of a DVD-Ig protein (DVD3751, DVD3752, DVD3754, DVD3755, DVD3759 and DVD3760), unless otherwise noted. Cells were also treated with 1 μg/ml 1826, an experimental ligand for TLR9, as a control. After 24 hours, the cells were pulsed for 6 hours with [3H]thymidine (Perkin Elmer, Waltham Mass.). Incorporation of [3H]thymidine was quantified via a liquid scintillation beta counter (Trilux 1450 MicroBeta, PerkinElmer) according to standard methods.
(§3) DVD-Ig proteins DVD3751-DVD3760 were characterized by ^3H incorporation at […] according to the method of Example 2.6.

AM14 TLR9−/− B cells = assay: [3H]thymidine incorporation, BCR/TLR9 stimulation of AM14 TLR9-/- B cells; format: cell-based, mouse; conditions: at 5 mg/ml; 24 hours, then 6 hours pulse
Source text: as §1, §2, §3

| potency in IgM binding assay (mIgM; among DVD3751-DVD3760) | IgM Binding EC50 (mIgM) [µg/mL] | IgM binding by direct binding ELISA (mIgM; Example 6, FIG. 8B) | Molecule | 3H incorporation AM14 WT, relative result (AM14 WT B cells) | 3H incorporation AM14 WT (AM14 WT B cells) | 3H incorporation AM14 TLR9−/− (AM14 TLR9−/− B cells) | level of 3H incorporation (AM14 WT B cells; among DVD3751-DVD3760) |
| --- | --- | --- | --- | --- | --- | --- | --- |
| highest potency | 0.04116 | – | DVD3759: DVD-Ig: VD1 mIgM (B7.6), SL linker, VD2 DNA(PA4); heavy SEQ ID NO 64, light 65 (antibody) heavy: QVQLKESGPGLVKPSLTLSLTCTVSGFSLNGYGVIWVRQPPGKGLEWMGVIWGNGNTNYNSTLKSRLSISRDTSKSQVFLKMNNLQTEDTAMYFCARSENYYSSPGYFAYWGQGTLVTVSSASTKGPEVQLVESGGGLVKPGGSLKLSCVASGFTFSTYAMSWVRQTPTKRLEWVATISRGGVSTYYPDTVKGRFTISRDNAKNTLYLQMSSLRSEDTAMYYCARPPTIVTTWFAYWGQGTLVTVSS light: NTVMTQSPTSMFISVGDRVTMNCKASQNVGSDVDWYQQKTGQSPKLLISGTSNRYTGVPDRFTGSGSGTDFTLTISNMQAEDLAVYYCLQYNYNPTFGAGTKLELKRTVAAPSVFIFPPDVVMTQTPLSLPVSLGDQASISCRSSQSLVHSNGNTYLHWYLQKPGQSPKLLIYKVSNRFSGVPDRFSGSGSGTDFTLKISRVEAEDLGAYFCSQSTHVPYTFGGPTRLEIKR | (XX) | (18554) | (970) | – |
| – | 0.1167 | intermediate IgM binding affinity | DVD3754: DVD-Ig: VD1 DNA(PA4), SL linker, VD2 mIgM (B7.6); heavy SEQ ID NO 54, light 55 (antibody) heavy: EVQLVESGGGLVKPGGSLKLSCVASGFTFSTYAMSWVRQTPTKRLEWVATISRGGVSTYYPDTVKGRFTISRDNAKNTLYLQMSSLRSEDTAMYYCARPPTIVTTWFAYWGQGTLVTVSSASTKGPQVQLKESGPGLVKPSLTLSLTCTVSGFSLNGYGVIWVRQPPGKGLEWMGVIWGNGNTNYNSTLKSRLSISRDTSKSQVFLKMNNLQTEDTAMYFCARSENYYSSPGYFAYWGQGTLVTVSS light: DVVMTQTPLSLPVSLGDQASISCRSSQSLVHSNGNTYLHWYLQKPGQSPKLLIYKVSNRFSGVPDRFSGSGSGTDFTLKISRVEAEDLGAYFCSQSTHVPYTFGGPTRLEIKRTVAAPSVFIFPPNTVMTQSPTSMFISVGDRVTMNCKASQNVGSDVDWYQQKTGQSPKLLISGTSNRYTGVPDRFTGSGSGTDFTLTISNMQAEDLAVYYCLQYNYNPTFGAGTKLELKR | (XXX) | (35214) | (1597) | highest level of ^3H incorporation |

Source: US20150125397A1, “DUAL SPECIFIC BINDING PROTEINS DIRECTED AGAINST IMMUNE CELL RECEPTORS AND AUTOANTIGENS” (ABBVIE INC., priority 2013, published 2015)
